In US20240174763A1 (NOVOPROTEIN SCIENTIFIC, published 2024):
Changes are numbered by the printed parent chain. Where two headings read alike, the source gives them in different places. Blank lines part the entries; values can stand above or below the molecule they belong to.

Experiments:
[1] = target: human CD73 on SK-OV-3 cells (human ovarian adenocarcinoma cells) (human) (UniProt P21589); experiment: flow cytometry on SK-OV-3 cells
[2] = target: human CD73 on SK-OV-3 cells (human ovarian adenocarcinoma cells) (human) (UniProt P21589); experiment: flow cytometry on SK-OV-3 cells, anti-hFc-APC
[3] = target: human CD73 on SK-OV-3 cells (human ovarian adenocarcinoma cells) (human) (UniProt P21589); experiment: flow cytometry on SK-OV-3 cells; remark: listed apart in the source
[4] = target: human CD73 on SK-OV-3 cells (human ovarian adenocarcinoma cells) (human) (UniProt P21589); experiment: flow cytometry on SK-OV-3 cells, anti-hFc-APC; remark: listed apart in the source
[5] = target: human CD73 on SK-OV-3 cells (human ovarian adenocarcinoma cells) (human) (UniProt P21589); experiment: flow cytometry on SK-OV-3 cells; remark: listed apart in the source
[6] = target: human CD73 on SK-OV-3 cells (human ovarian adenocarcinoma cells) (human) (UniProt P21589); experiment: flow cytometry on SK-OV-3 cells, anti-hFc-APC; remark: listed apart in the source
[7] = target: monkey CD73 on CHOK1-cynoCD73 cells (monkey); experiment: flow cytometry on CHOK1-cynoCD73 cells
[8] = target: T1, human CD73 on SK-OV-3 cells (human ovarian adenocarcinoma cells) (human, UniProt P21589 27-549); experiment: flow cytometry on SK-OV-3 cells
T1 construct: whole, on cells; also called human CD73 positive cells
T1 sequence (looked up): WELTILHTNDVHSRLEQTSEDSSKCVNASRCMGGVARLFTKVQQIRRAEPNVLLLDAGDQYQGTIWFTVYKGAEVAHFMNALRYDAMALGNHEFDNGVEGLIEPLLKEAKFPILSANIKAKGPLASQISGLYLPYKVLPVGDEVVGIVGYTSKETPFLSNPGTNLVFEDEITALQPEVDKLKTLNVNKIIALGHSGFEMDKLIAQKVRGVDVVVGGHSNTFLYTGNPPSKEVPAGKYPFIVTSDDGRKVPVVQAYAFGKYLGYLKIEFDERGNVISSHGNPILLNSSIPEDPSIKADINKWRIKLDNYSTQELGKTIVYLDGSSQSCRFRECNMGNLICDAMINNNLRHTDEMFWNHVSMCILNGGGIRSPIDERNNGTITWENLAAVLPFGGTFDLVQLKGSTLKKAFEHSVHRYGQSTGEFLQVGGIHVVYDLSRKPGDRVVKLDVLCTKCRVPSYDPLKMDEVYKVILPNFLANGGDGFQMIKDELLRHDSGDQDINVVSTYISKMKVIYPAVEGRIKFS

[9] = target: T2, recombinant monkey CD73 protein (monkey, UniProt A0A2K5V5U7 27-549); experiment: ELISA, plate coated with recombinant monkey CD73 at 3 µg/mL
T2 construct: Monkey species not further named for the recombinant protein (the cell line is called cynoCD73)
T2 sequence: T1 sequence (looked up) with M199T, T350A, V466I
Source text: (§1) The combination of antibody and the recombinant monkey CD73 was detected by an ELISA method, and the result is shown in FIG. 8B.

[10] = target: T3, monkey CD73 on CHOK1-cynoCD73 cells (monkey, UniProt A0A2K5V5U7 27-549, GPI anchor at the C-terminus of the mature chain (paragraph 3 says CD73 is GPI-anchored). The propeptide 550-574 is removed.); experiment: flow cytometry on CHOK1-cynoCD73 cells
T3 construct: also called CHOK1-cyno73 cells; monkey CD73 positive cells
T3 sequence: T1 sequence (looked up) with M199T, T350A, V466I
Source text: The full length of monkey CD73 was constructed on a eukaryotic expression vector containing NEO resistance, CHO-K1 cells were transfected, G418 was used for screening to obtain a CHOK1-cynoCD73 cell strain.

[11] = target: T2, recombinant monkey CD73 protein; experiment: ELISA, recombinant monkey CD73 coated at 3 ug/mL
Source text: as §1

[12] = target: T4, recombinant human CD73 protein (human, UniProt P21589 27-547, limits assumed); experiment: ELISA, recombinant human CD73 coated at 3 ug/mL
T4 construct: Bought recombinant protein; the assays only say recombinant human CD73; also called rhCD73; recombinant hCD73 protein
T4 sequence (looked up): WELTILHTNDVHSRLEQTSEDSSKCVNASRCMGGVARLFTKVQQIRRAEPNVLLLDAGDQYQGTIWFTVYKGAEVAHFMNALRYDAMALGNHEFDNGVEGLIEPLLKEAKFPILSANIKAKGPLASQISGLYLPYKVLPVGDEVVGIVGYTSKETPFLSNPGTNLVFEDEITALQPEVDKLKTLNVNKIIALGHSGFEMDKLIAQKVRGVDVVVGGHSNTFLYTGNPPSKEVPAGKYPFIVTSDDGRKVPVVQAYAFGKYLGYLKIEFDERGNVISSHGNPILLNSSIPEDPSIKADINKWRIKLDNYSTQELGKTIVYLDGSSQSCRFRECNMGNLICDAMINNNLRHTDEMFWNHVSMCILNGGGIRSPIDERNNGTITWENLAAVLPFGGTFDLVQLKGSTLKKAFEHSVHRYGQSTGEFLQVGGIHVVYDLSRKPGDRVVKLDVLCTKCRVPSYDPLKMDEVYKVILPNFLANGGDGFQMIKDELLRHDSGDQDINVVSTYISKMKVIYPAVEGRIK

[13] = target: T4, recombinant human CD73 protein; experiment: ELISA, plate coated with recombinant human CD73 at 3 µg/mL
[14] = target: T1, human CD73 on SK-OV-3 cells (human …); experiment: flow cytometry on SK-OV-3 cells, anti-hFc-APC
[15] = target: T1, human CD73 on SK-OV-3 cells (human …); experiment: flow cytometry on SK-OV-3 cells; remark: listed apart in the source
[16] = target: T3, monkey CD73 on CHOK1-cynoCD73 cells; experiment: flow cytometry on CHOK1-cynoCD73 cells; remark: listed apart in the source
[17] = target: T4, recombinant human CD73 protein; experiment: ELISA, recombinant human CD73 coated at 3 ug/mL; remark: listed apart in the source
[18] = target: T1, human CD73 on SK-OV-3 cells (human …); experiment: flow cytometry on SK-OV-3 cells, anti-hFc-APC; remark: listed apart in the source
[19] = target: T2, recombinant monkey CD73 protein; experiment: ELISA, recombinant monkey CD73
[20] = target: T2, recombinant monkey CD73 protein; experiment: ELISA, recombinant monkey CD73 coated at 3 ug/mL; remark: listed apart in the source
[21] = target: T4, recombinant human CD73 protein; experiment: ELISA, recombinant human CD73
[22] = target: T3, monkey CD73 on CHOK1-cynoCD73 cells; experiment: flow cytometry on CHOK1-cynoCD73 cells; remark: listed apart in the source

EC50 [1]: 0.0336 µg/mL
EC50 (read off the curve) [2]: 0.03 µg/mL
EC50 [3]: 0.00963 µg/mL
EC50 (read off the curve) [4]: 0.1 µg/mL
EC50 [5]: 23.5 µg/mL
EC50 (read off the curve) [6]: 0.02 µg/mL
EC50 [7]: 0.00412 µg/mL
EC50 (read off the curve) [7]: 0.002 µg/mL
Molecule: MEDI-9447 of AstraZeneca(AZ)/Medimmune (antibody)

EC50 [8]: 7.03 µg/mL
EC50 [9]: 0.202 µg/mL
EC50 [10]: 0.0403 µg/mL
EC50 (read off the curve) [10]: ~0.04 µg/mL
EC50 (read off the curve) [11]: ~0.2 µg/mL
EC50 (read off the curve) [12]: ~0.3 µg/mL
EC50 [13]: 0.331 µg/mL
EC50 (read off the curve) [14]: ~0.003 µg/mL
B1: humanized CQ137 monoclonal antibody (137-3) (antibody, V domains shown)
VH: QVQLVQSGAEVKKPGSSVKVSCKASGYSFTGYYIHWVRQAPGQGLEWMGRINPYNGATTYNQNFKDRVTITVDKSTSTAYMELSSLRSEDTAVYYCARFHYGAPDYWGQGTLVTVSS
VL: DIQMTQSPSSLSASVGDRVTITCKASQDINTYLTWYQQKPGKAPKTLIYRANILVDGVPSRFSGSGSGTDFTLTISSLQPEDFATYYCLQYDEFPLTFGGGTKVEIKR

EC50 [8]: 2.13 µg/mL
EC50 [9]: 3.76 µg/mL
EC50 [10]: 0.0862 µg/mL
EC50 (read off the curve) [10]: ~0.09 µg/mL
EC50 (read off the curve) [12]: ~0.3 µg/mL
EC50 [13]: 0.258 µg/mL
EC50 (read off the curve) [14]: ~0.002 µg/mL
B2: humanized CQ137 monoclonal antibody (137-1) (antibody, V domains shown)
VH: B1 VH with S16A, S28T, I70M, S84R, E89D
VL: B1 VL with Y36F, T69Q, F71Y

EC50 [15]: 0.00371 µg/mL
EC50 [16]: 0.00769 µg/mL
EC50 (read off the curve) [17]: ~0.3 µg/mL
EC50 (read off the curve) [18]: ~0.004 µg/mL
EC50 [19]: 0.315 µg/mL
EC50 (read off the curve) [20]: ~0.3 µg/mL
EC50 [21]: 0.267 µg/mL
EC50 (read off the curve) [22]: ~0.008 µg/mL
B3: humanized CQ137 monoclonal antibody (137-6) (antibody, V domains shown)
VH: B1 VH with D105E
VL: B1 VL with D92A

EC50 [8]: 3.26 µg/mL
EC50 [9]: 0.313 µg/mL
EC50 [10]: 0.0233 µg/mL
EC50 (read off the curve) [10]: ~0.02 µg/mL
EC50 (read off the curve) [11]: ~0.3 µg/mL
EC50 (read off the curve) [12]: ~0.3 µg/mL
EC50 [13]: 0.275 µg/mL
EC50 (read off the curve) [14]: ~0.007 µg/mL
B4: humanized CQ137 monoclonal antibody (137-2) (antibody, V domains shown)
VH: B1 VH with S16A, I70M, S84R, E89D
VL: B1 VL with Y36F, T46S

EC50 [15]: 0.00307 µg/mL
EC50 [16]: 0.00831 µg/mL
EC50 (read off the curve) [17]: ~0.3 µg/mL
EC50 (read off the curve) [18]: ~0.003 µg/mL
EC50 [19]: 0.352 µg/mL
EC50 (read off the curve) [20]: ~0.4 µg/mL
EC50 [21]: 0.262 µg/mL
EC50 (read off the curve) [22]: ~0.008 µg/mL
B5: humanized CQ137 monoclonal antibody (137-4) (antibody, V domains shown)
VH: B1 VH with P104V
VL: B1 VL with D92E
